Assay results as given in patent US20250195556A1, “COMPOSITIONS, KITS, AND METHODS TO INDUCE ACQUIRED CYTORESISTANCE USING STRESS PROTEIN INDUCERS” (FRED HUTCHINSON CANCER RESEARCH CENTER, priority 2014, published 2025).

How the values were obtained:
[1] = system: haptoglobin; assay: Renal cortical haptoglobin mRNA and protein after IV N-Mgb, SnPP or both; format: in vivo, mice
Source text: (§1) Cytoresistance-inducing reagents. […] (#Mb0360; Sigma) was used as the primary cytoresistance-inducing agent. However, because myoglobin (Mgb) has an inherent nephrotoxic potential (particularly under conditions of volume depletion and aciduria), two approaches were used to mitigate Mgb's potential adverse effects. First, the Mgb was converted into a nitrited form by the addition of equimolar amount of sodium (Na) nitrite. In this regard, nitrite is an ambidentate molecule that directly binds 1:1 to myoglobin Fe either via its oxygen or nitrogen component. Cotton et al. Advanced inorganic chemistry. Hobocken, NJ: Wiley-Interscience, 1999:1355; Silaghi-Dumitrescu et al. Nitric Oxide 2014; 42 C: 32-9. […] Rassaf et al. Circ Res 2014; 114:1601-10; Totzeck et al. Circulation 2012; 126:325-34 [J Clin Invest 1992; 89:989-95]; Totzeck et al. PLOS One 2014; 22: e105951; Hendgen-Cotta et al. Proc Natl Acad Sci USA 2008; 105:10256-61.
(§2) Thirty-two mice were divided into 4 equal groups: (1) control mice; (2) mice treated with 1 mg of N-Mgb injection (as a bolus through the tail vein); (3) mice treated with […] of SnPP (via tail vein); and (4) mice treated with combined N-Mgb 1 SnPP. After either 4 hours (n=16) or 18 hours (n=16), the mice were deeply anesthetized with pentobarbital (50 mg/kg), the abdomen was opened through a midline abdominal incision, and the kidneys were removed. To determine potential effects on extrarenal organs, a liver lobe and the heart were also removed. The tissues were iced and then extracted for protein and RNA (RNeasy Plus Mini; Qiagen, Valencia, California) and subjected to enzyme linked immunosorbent assay (ELISA) and reverse transcriptase polymerase chain reaction (RT-PCR) for HO-1, haptoglobin, and IL-10 protein and messenger RNAs (mRNAs). Zager et al. J Am Soc Nephrol 2014; 25:998-1012; Zager et al. Am J Physiol 2012; 303: F139-48. As an assessment of renal function, control mice and the 18 hour after N-Mgb+SnPP-treated mice had blood urea nitrogen (BUN) and plasma creatinine levels measured. Additionally, transverse 10% formalin fixed kidney sections ([…]) were cut and stained with hematoxylin and eosin (H&E) and periodic acid Schiff (PAS) to further assess potential injury.

[2] = system: HO-1; assay: Renal cortical HO-1 mRNA and protein after IV N-Mgb, SnPP or both; format: in vivo, mice
Source text: as §1, §2

[3] = system: haptoglobin; assay: Liver haptoglobin mRNA and protein after IV N-Mgb, SnPP or both; format: in vivo, mice; parameters: Liver protein: Haptoglobin: unit not given beside the values; details: for Liver mRNA: Haptoglobin: control 0.5; for Liver protein: Haptoglobin: control 115.3
Experimental: as §2

[4] = system: Male CD-1 mice; assay: Glycerol model of rhabdomyolysis-induced AKI (Example 4); format: in vivo; details: IV pretreatment 18 hours before glycerol; 18 hours after glycerol
Experimental: Assessments of cytoresistance. Glycerol model of rhabdomyolysis-induced AKI. Twenty mice were divided into 4 equal groups (controls, mice treated with N-Mgb, SnPP, and mice treated with N-Mgb+SnPP tail vein injections) as described previously. 18 hours later, the mice were briefly anesthetized with isoflurane and immediately injected with 9 mL/kg of 50% glycerol, administered in equally divided doses into each hind limb. At 18 hours after glycerol injection, the mice were anesthetized with pentobarbital, the abdomen was opened, a blood sample for BUN and creatinine assessments was obtained from the vena cava, and the kidneys were resected. The control post-glycerol group and the N-Mgb+SnPP-pretreated glycerol group had kidney sections stained with H&E.
Calculations and statistics. All values are given as the mean […] standard error of the mean. Statistical comparisons were made by unpaired Student's t test. If multiple comparisons were made, the Bonferroni correction was applied. The severity of renal histologic injury in the glycerol AKI model was graded on a […] (least to most severe tubular necrosis and cast formation observed). The histologic results were compared by Wilcoxon rank sum test. Statistical significance was taken as a P value of <0.05.

[5] = system: HK-2 cells; assay: Myoglobin toxicity in HK-2 cells, MTT assay; format: cell-based; details: equimolar Na nitrite, 10 mg/ml, 18 hr
Experimental: Example 3. […] HK-2 cells (a proximal tubule cell line derived from normal human kidney) were incubated in keratinocyte serum free medium either under normal (control) conditions or in the presence of 10 mg/mL horse skeletal muscle myoglobin or nitrited myoglobin (produced by equimolar Na nitrite addition to 10 mg/ml myoglobin). After 18 hr incubations, the severity of cell injury (% cell death) was assessed by MTT assay. Myoglobin induced 40% cell death (40% decrease in MTT cell uptake), compared to control incubated cells. Nitrite binding to myoglobin reduced cell death by 75%. Thus, nitrite binding is able to reduce myoglobin's cytotoxic effects.

[6] = Serum creatinine after 2 hr subcutaneous infusion of nitrited myoglobin + SnPP; format: in vivo, mice; details: 2 hr subcutaneous infusion of 1, 3, 6, 12, or 25 mg/Kg + 1 μmole SnPP; 18 hrs later
Experimental: Mice were subjected to a 2 hr subcutaneous infusion of 1, 3, 6, 12, or 25 mg/Kg of nitrited myoglobin (holding SnPP at a constant dose of 1 μmole). Eighteen hrs later, potential renal injury was assessed by measuring serum creatinine concentrations.
An obvious concern by applying this prophylactic strategy to patients is potential renal and/or extrarenal toxicities. […] Furthermore, it was previously documented in a cell culture system that nitrite addition markedly reduces myoglobin's cytotoxic effects by 75% (unpublished data, 2014). To assess the potential in vivo margin of safety for N-Mgb+SnPP (see Supplemental FIGs.), the maximal amount of N-Mgb that could be given to mice before nephrotoxicity was observed was tested. Up to 25 times the employed N-Mgb dose (with a constant SnPP dose) could be administered (over 2 hours) without induction of nephrotoxicity (normal BUN and creatinine, 18 hours later).

[7] = system: HO-1; assay: Liver HO-1 mRNA and protein after IV N-Mgb, SnPP or both; format: in vivo, mice; details: for Liver mRNA: HO-1: control 1.1; for Liver protein: HO-1 protein: control 10.2
Experimental: as §2

[8] = system: IL-10; assay: Liver IL-10 mRNA and protein after IV N-Mgb, SnPP or both; format: in vivo, mice; details: for Liver mRNA: IL-10: control 0.06; for Liver protein: IL-10: control 314
Experimental: as §2

[9] = system: IL-10; assay: Renal cortical IL-10 mRNA and protein after IV N-Mgb, SnPP or both; format: in vivo, mice; details: for Kidney protein: IL-10: control 304
Source text: as §1, §2

[10] = system: IL-10; assay: Cardiac IL-10 mRNA and protein after IV N-Mgb, SnPP or both; format: in vivo, mice; details: for Cardiac mRNA: IL-10: control 0.36
Experimental: as §2

[11] = system: haptoglobin; assay: Cardiac haptoglobin mRNA and protein after IV N-Mgb, SnPP or both; format: in vivo, mice; details: for Cardiac mRNA: Haptoglobin: control 0.31; for Cardiac protein: Haptoglobin: control 15.6
Experimental: as §2

[12] = system: HO-1; assay: Cardiac HO-1 mRNA and protein after IV N-Mgb, SnPP or both; format: in vivo, mice; details: for Cardiac mRNA: HO-1: control 0.07
Experimental: as §2

[13] = read-out: affinity to heme (KD); cited from earlier work

B1: N-Mgb: horse skeletal muscle myoglobin converted into a nitrited form by addition of equimolar sodium nitrite (protein, UniProt P68082 2-154, looked up)
Myoglobin: GLSDGEWQQVLNVWGKVEADIAGHGQEVLIRLFTGHPETLEKFDKFKHLKTEAEMKASEDLKKHGTVVLTALGGILKKKGHHEAELKPLAQSHATKHKIPIKYLEFISDAIIHVLHSKHPGDFGADAQGAMTKALELFRNDIAAKYKELGFQG
modifications: nitrited with sodium nitrite
For B1, which “Kidney mRNA: Haptoglobin” value ([1]; 4 h after Rx, control 0.20) is on record?
The value was 1.94 ± 0.31.

And the “Kidney protein: Haptoglobin” value ([1]; 4 h after Rx, control 7.9)?
The value was 17.6 ± 1^.

What about the “Kidney mRNA cortex: Haptoglobin” value ([1]; 18 h after Rx, control 0.20) of the same molecule?
Its value is 0.24 ± 0.04.

And the “Kidney protein: Haptoglobin” value ([1]; 18 h after Rx, control 10.3)?
The value was 183.8 ± 20.4.

And the “Kidney mRNA: HO-1” value ([2]; 4 h after Rx, control 0.61)?
The value was 3.38 ± 0.38.

And the “Kidney HO-1 protein” value ([2]; 4 h after Rx, control 13.3)?
The value was 36.1 ± 2.9.

What about the “Kidney mRNA cortex: HO-1” value ([2]; 18 h after Rx, control 0.61) of the same molecule?
Its value is 0.58 ± 0.18.

And the “Kidney protein: HO-1” value ([2]; 18 h after Rx, control 13.3)?
Its value is 30 ± 6.

What about the “Liver mRNA: Haptoglobin” value ([3]; 4 h after Rx) of the same molecule?
Its value is 0.98 ± 0.1.

And the “Liver protein: Haptoglobin” value ([3]; 4 h after Rx)?
The value was 359.5 ± 39.6.

And the “Liver mRNA: Haptoglobin” value ([3]; 18 h after Rx)?
Its value is 0.91 ± 0.07.

What about the “Liver protein: Haptoglobin” value ([3]; 18 h after Rx) of the same molecule?
Its value is 358.8 ± 32.8.

What about the “Protection against glycerol-induced AKI (BUN/creatinine levels)” value [4] of the same molecule?
The value was “modest protection”.

And the “Reduction of myoglobin-induced cell death by nitrite binding” value [5]?
Its value is 75%.

And the Serum creatinine concentrations [6]?
Its Serum creatinine concentrations is “No significant increase”.

What about the “Liver mRNA: HO-1” value ([7]; 4 h after Rx) of the same molecule?
Its value is 1.83 ± 0.33.

What about the “Liver protein: HO-1 protein” value ([7]; 4 h after Rx) of the same molecule?
Its value is 17 ± 2.

And the “Liver mRNA: HO-1” value ([7]; 18 h after Rx)?
The value was 0.82 ± 0.07.

And the “Liver protein: HO-1 protein” value ([7]; 18 h after Rx)?
The value was 14.9 ± 0.3.

What about the “Liver mRNA: IL-10” value ([8]; 4 h after Rx) of the same molecule?
Its value is 0.67 ± 0.46.

And the “Liver protein: IL-10” value ([8]; 4 h after Rx)?
The value was 286 ± 32.

And the “Liver mRNA: IL-10” value ([8]; 18 h after Rx)?
Its value is 0.06 ± 0.02.

And the “Liver protein: IL-10” value ([8]; 18 h after Rx)?
Its value is 5988 ± 549.

What about the “Kidney mRNA: IL-10” value ([9]; 4 h after Rx, control 0.56) of the same molecule?
The value was 1.45 ± 0.6.

What about the “Kidney protein: IL-10” value ([9]; 4 h after Rx) of the same molecule?
The value was 265 ± 54.

What about the “Kidney mRNA cortex: IL-10” value ([9]; 18 h after Rx, control 0.56) of the same molecule?
Its value is 0.43 ± 0.10.

What about the “Kidney protein: IL-10” value ([9]; 18 h after Rx) of the same molecule?
Its value is 292 ± 54.

What about the “Cardiac mRNA: IL-10” value ([10]; 4 h after Rx) of the same molecule?
The value was 0.86 ± 0.11.

And the “Cardiac protein: IL-10” value ([10]; 4 h after Rx, control 8.1)?
The value was 21 ± 12.

And the “Cardiac mRNA: IL-10” value ([10]; 18 h after Rx)?
The value was 0.67 ± 0.10.

What about the “Cardiac protein: IL-10” value ([10]; 18 h after Rx, control 8) of the same molecule?
Its value is 14.5 ± 10^.

And the “Cardiac mRNA: Haptoglobin” value ([11]; 4 h after Rx)?
Its value is 0.75 ± 0.10.

What about the “Cardiac protein: Haptoglobin” value ([11]; 4 h after Rx) of the same molecule?
The value was 40.4 ± 8.6.

What about the “Cardiac mRNA: Haptoglobin” value ([11]; 18 h after Rx) of the same molecule?
The value was 0.53 ± 0.21.

What about the “Cardiac protein: Haptoglobin” value ([11]; 18 h after Rx) of the same molecule?
The value was 249.6 ± 15.0.

What about the “Cardiac mRNA: HO-1” value ([12]; 4 h after Rx) of the same molecule?
The value was 0.09 ± 0.01.

And the “Cardiac protein: HO-1” value ([12]; 4 h after Rx, control 1.50)?
Its value is 1.64 ± 0.19.

And the “Cardiac mRNA: HO-1” value ([12]; 18 h after Rx)?
Its value is 0.08 ± 0.01.

B2: Hemopexin: 60 kDa plasma protein that sequesters free heme; protective stress protein (background) (protein, listed as Homo sapiens)
chain: MARVLGAPVALGLWSLCWSLAIATPLPPTSAHGNVAEGETKPDPDVTERCSDGWSFDATTLDDNGTMLFFKGEFVWKSHKWDRELISERWKNFPSPVDAAFRQGHNSVFLIKGDKVWVYPPEKKEKGYPKLLQDEFPGIPSPLDAAVECHRGECQAEGVLFFQGDREWFWDLATGTMKERSWPAVGNCSSALRWLGRYYCFQGNQFLRFDPVRGEVPPRYPRDVRDYFMPCPGRGHGHRNGTGHGNSTHHGPEYMRCSPHLVLSALTSDNHGATYAFSGTHYWRLDTSRDGWHSWPIAHQWPQGPSAVDAAFSWEEKLYLVQGTQVYVFLTKGGYTLVSGYPKRLEKEVGTPHGIILDSVDAAFICPGSSRLHIMAGRRLWWLDLKSGAQATWTELPWPHEKVDGALCMEKSLGPNSCSANGPGLYLIHGPNLYCYSDVEKLNAAKALPQPQNVTSLLGCTH
With B2 as the molecule, how does the Kd [13] read?
Its Kd is less than 1 pM.
